Measured values as given in paper PMC5444744, “Interaction between granulin A and enolase 1 attenuates the migration and invasion of human hepatoma cells” (Oncotarget, 2017).

Target: T1, ENO1 (bought, ATGen #ATGP0404) (UniProt P06733 1-434)
T1 construct: ENO1 (α-enolase), bought protein, ATGen #ATGP0404; also called α-enolase; source: bought: ATGen (#ATGP0404)
Assay: SPR; ENO1 immobilised directly on CM5 chip (8171 RU, 10 mM sodium acetate pH 5.0); GRN A 3.5-112.0 μM in HBS-EP (10 mM HEPES, 150 mM NaCl, 3 mM EDTA, 0.05% P20) at 30 μL/min; BIACORE T200; KD = Koff/Kon
Settings: both partners purified

T1 sequence (P06733 whole entry): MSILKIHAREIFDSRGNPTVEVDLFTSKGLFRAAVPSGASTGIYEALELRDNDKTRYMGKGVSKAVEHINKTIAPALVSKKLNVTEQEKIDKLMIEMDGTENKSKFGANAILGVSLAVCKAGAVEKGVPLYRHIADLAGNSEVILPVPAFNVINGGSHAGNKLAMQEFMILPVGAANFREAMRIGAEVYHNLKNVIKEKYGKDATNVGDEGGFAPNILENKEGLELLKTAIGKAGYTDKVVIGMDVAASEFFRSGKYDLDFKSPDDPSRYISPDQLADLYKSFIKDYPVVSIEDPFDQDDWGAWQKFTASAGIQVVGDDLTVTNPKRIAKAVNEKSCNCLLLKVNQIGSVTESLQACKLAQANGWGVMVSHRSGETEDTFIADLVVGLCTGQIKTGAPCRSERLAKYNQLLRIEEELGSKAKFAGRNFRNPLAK

Kd: 56 µM
B1: Granulin A (His-GRN A) (peptide, UniProt P28799 281-336, looked up)
chain: DVKCDMEVSCPDGYTCCRLQSGAWGCCPFTQAVCCEDHIHCCPAGFTCDTQKGTCE
notes: granulin A (GRN A), a peptide of about 6 kDa with 12 cysteine residues, derived from proteolysis of progranulin (PGRN); The source and limits of the His-tagged GRN A are not described; The SPR methods call the analyte only 'GRN A'
